B1: Twist-related protein 1 (Homo sapiens), Q15672 (parent)
chain: MMQDVSSSPVSPADDSLSNSEEEPDRQQPPSGKRGGRKRRSSRRSAGGGAGPGGAAGGGVGGGDEPGSPAQGKRGKKSAGCGGGGGAGGGGGSSSGGGSPQSYEELQTQRVMANVRERQRTQSLNEAFAALRKIIPTLPSDKLSKIQTLKLAARYIDFLYQVLQSDELDSKMASCSYVAHERLSYAFSVWRMEGAWSMSASH

Experiments:
TCF3, P15923-1 [1] = variants of: B1; conditions: with TCF3, P15923-1
TCF3, P15923-1 [2] = variants of: B1; conditions: with TCF3, P15923-1; remark: listed apart in the source

Chain of TCF3, P15923-1 (P15923 whole entry): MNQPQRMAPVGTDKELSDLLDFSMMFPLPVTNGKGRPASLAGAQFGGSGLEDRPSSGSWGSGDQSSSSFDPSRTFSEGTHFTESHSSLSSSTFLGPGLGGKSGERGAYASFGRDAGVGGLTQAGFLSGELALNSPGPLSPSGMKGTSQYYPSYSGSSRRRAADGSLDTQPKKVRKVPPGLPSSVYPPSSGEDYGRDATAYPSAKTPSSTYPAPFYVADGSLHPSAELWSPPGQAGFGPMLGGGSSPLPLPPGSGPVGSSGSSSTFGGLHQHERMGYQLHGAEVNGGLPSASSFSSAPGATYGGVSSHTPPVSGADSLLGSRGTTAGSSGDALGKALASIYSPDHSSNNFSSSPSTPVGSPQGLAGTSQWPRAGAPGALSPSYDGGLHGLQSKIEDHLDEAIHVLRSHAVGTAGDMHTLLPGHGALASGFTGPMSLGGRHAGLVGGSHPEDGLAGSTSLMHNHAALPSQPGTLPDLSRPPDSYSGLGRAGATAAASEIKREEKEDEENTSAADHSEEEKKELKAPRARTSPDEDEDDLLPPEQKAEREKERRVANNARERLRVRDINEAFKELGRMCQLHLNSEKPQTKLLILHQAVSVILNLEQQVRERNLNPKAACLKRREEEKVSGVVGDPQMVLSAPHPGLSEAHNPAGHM

| effect of a mutation on the interaction (TCF3, P15923-1 [1]) | effect of a mutation on the interaction (TCF3, P15923-1 [2]) | Variant |
| --- | --- | --- |
| decreasing interaction strength | with no effect | K145E |
| disrupting interaction strength | decreasing interaction strength | L159F |
| disrupting interaction strength | decreasing interaction strength | A129P |

— IntAct's records for PubMed 10749989
